Measured values: patent publication US20130022608A1 (POMONA RICERCA S R L, published 2013)

B1: Fab PN-SIA28 (Fab, V domains shown)
VH: LEESGGGVVQPGRSLRLSCAASGFPFSSYGMHWVRQAPGKGLEWVAGVSYDGSYKYYADSVKGRFTISRDSSKSTLYLQMNSLRPEDTAVYYCARPSAIFGIYIILNGLDVWGQGTTVTVSS
VL: ELTQSPSSVSASVGDRVTITCRATQGISSWLAWYQQKPGKPPKLLIFGASSLQSGVPSRFSGSGSGTDFTLTISSLQPEDFATYFCQQAHSFPLTFGGGTKVEIK
B2: IgG PN-SIA28 (antibody, V domains shown)
VH: B1 VH
VL: B1 VL

Legend:
Assay in all cases: cell-based or functional assay
[1] = molecular target: Hemagglutinin of A/Milan/UHSR1/2009 (H1N1) (Influenza A virus A/Milan/UHSR1/2009 …)
[2] = molecular target: Hemagglutinin of A/WS/33 (H1N1) (Influenza A virus A/WS/33 (H1N1), UniProt P03454 18-565)
[3] = molecular target: Hemagglutinin of A/Mal/302/54 (H1N1) (Influenza A virus A/Mal/302/54 (H1N1))
[4] = molecular target: Hemagglutinin of A/NC/20/99 (H1N1) (Influenza A virus A/NC/20/99 (H1N1))
[5] = molecular target: Hemagglutinin of A/Swine/Parma/1/97 (H1N1) (Influenza A virus A/Swine/Parma/1/97 …)
[6] = molecular target: A/PR/8/34 (H1N1) hemagglutinin (HA), wild type (Influenza A virus A/PR/8/34 (H1N1), UniProt P03452 18-565)
[7] = molecular target: Hemagglutinin of A/Hong Kong/8/68 (H3N2) (Influenza A virus A/Hong Kong/8/68 …)
[8] = molecular target: Hemagglutinin of A/Victoria/3/75 (H3N2) (Influenza A virus A/Victoria/3/75 (H3N2), UniProt P03435 17-567)
[9] = molecular target: Hemagglutinin of A/Port Chalmers/1/73 (H3N2) (Influenza A virus A/Port Chalmers/1/73 …)
[10] = molecular target: Hemagglutinin of A/Wisconsin/67/2005 (H3N2) (Influenza A virus A/Wisconsin/67/2005 …)
[11] = molecular target: H3N2 HA (A/Aichi/2/68), wild type (Influenza A virus A/Aichi/2/68 (H3N2), UniProt Q91MA7 17-566)

Binder | IC50, micro-neutralization assay on MDCK cells [1] [µg/mL] | IC50, micro-neutralization assay on MDCK cells [2] [µg/mL] | IC50, micro-neutralization assay on MDCK cells [3] [µg/mL] | IC50, micro-neutralization assay on MDCK cells [4] [µg/mL] | IC50, micro-neutralization assay on MDCK cells [5] [µg/mL] | IC50, micro-neutralization assay on MDCK cells [6] [µg/mL] | IC50, micro-neutralization assay on MDCK cells [7] [µg/mL] | IC50, micro-neutralization assay on MDCK cells [8] [µg/mL] | IC50, micro-neutralization assay on MDCK cells [9] [µg/mL] | IC50, micro-neutralization assay on MDCK cells [10] [µg/mL] | IC50, micro-neutralization assay on MDCK cells [11] [µg/mL]
B1 | 0.3 | 2.9 | 0.8 | 7 | 3.9 | 2 | 20 | > 20 | 13.2 | > 20 | 20
B2 | 0.2 | 1.3 | 0.64 | – | 2 | 1.2 | 0.8 | 1.2 | 1.8 | – | 0.6
